Data from paper PMC2757237.

How the values were obtained:
Assay in all cases: co-IP
[1] = target: PfGAPM1-HA (P. falciparum) (UniProt Q8IE80)
[2] = target: PfGAPM2-GFP (P. falciparum) (UniProt Q8IFN1)
[3] = target: PfGAPM3-HA (P. falciparum)

Substance: PfALV4 (natural protein)
- percent of the total ALV in the sample that was precipitated [1]: 17%
- percent of the total ALV in the sample that was precipitated [2]: 26%
- percent of the total ALV in the sample that was precipitated [3]: 16%

Substance: PfGAP45 (from UniProt Q8I5I8 1-204) (natural protein)
- percent of the protein in the sample that was precipitated [3]: < 10%

Substance: PfGAP50 (natural protein)
- percent of the protein in the sample that was precipitated [1]: < 10%
- percent of the protein in the sample that was precipitated [2]: < 10%
- percent of the protein in the sample that was precipitated [3]: < 10%
